# Literature values, collected in PMC11949069.
# Biological target: IL-18BPa (Homo sapiens) (UniProt O95998)
# Sequence (O95998 31-194): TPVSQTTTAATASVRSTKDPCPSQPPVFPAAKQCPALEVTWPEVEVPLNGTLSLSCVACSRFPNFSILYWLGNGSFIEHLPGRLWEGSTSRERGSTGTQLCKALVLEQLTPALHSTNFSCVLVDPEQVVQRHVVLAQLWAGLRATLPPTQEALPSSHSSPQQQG
# Chain of IL-18 (Q14116 37-193): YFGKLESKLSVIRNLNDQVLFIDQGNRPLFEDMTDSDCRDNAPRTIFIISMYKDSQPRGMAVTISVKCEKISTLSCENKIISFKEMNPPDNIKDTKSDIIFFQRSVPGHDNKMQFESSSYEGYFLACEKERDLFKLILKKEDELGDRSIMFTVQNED
substance,measurement,value
IL-18 (from UniProt Q14116),Kd,0.4 nM
